Data reported in article PMC6486627, “Structural basis for RNA translocation by DEAH-box ATPases” (Nucleic Acids Research, 2019).
Changes are numbered by the printed parent chain. Numbers in names are those of the source.

B1: ctPrp22 (Thermochaetoides thermophila DSM 1495) (protein)
chain: TNMSIKEQRESLPVFQFRDQIIQAVKDNQILIVVGETGSGKTTQVTQYLAEAGFTKYGMIGCTQPRRVAAVSVAKRVAEEVGCQLGQEVGYTIRFEDVTSPATKIKYMTDGMLQREILMDPDLKRYSVIMLDEAHERTIATDVLFALLKKTVKRRPDLKVIVTSATLDAEKFSEYFNSCPIFTIPGRTFPVEILYSREPEPDYLEAALTTVMQIHLTEPPGDILVFLTGQEEIDTACEILYERMKALGPSVPELIILPIYSALPSEMQSRIFEPAPPGSRKVVIATNIAETSITIDYIYYVVDPGFVKQNAYDPKLGMDSLVVTPISQAQANQRAGRAGRTGPGKCFRLYTEAAYQSEMLPTTIPDIQRQNLANTILLLKAMGINDLLRFDFMDPPPVNTMLTALEELYALGALDDEGLLTRLGRKMADFPMEPSLSKVLIASVDKGCSDEMVTIVSMLNLQQIFYRPKDKQQQADQKKAKFHDPTGDHLTLLNVYNAWKNSGYSNAWCFENYIQARAMRRARDVRQQIVKIMERHRHPIISCGRDTDKIRQALCAGFFRNTARKDPQEGYKTLTEGTPVYLHPSSALFGKQAEWVLYHELVLTTKEYMHFTTAIEPKWLVEAAPTFFKLAPTDRLSKRKKAERIQPLYNKYEGEDGWRLSAQRRAARPGGGGGTWG
notes: N-terminally truncated, lacks first 545 residues (S1 motif omitted); GST fusion from pGEX-6p1, tag cleaved by TEV; E. coli Rosetta 2 (DE3)
B2: ctPrp22 (Thermochaetoides thermophila DSM 1495; S837G) (protein)
chain: B1 chain with S292G
notes: as for B1
B3: ctPrp22 (Thermochaetoides thermophila DSM 1495; S837A) (protein)
chain: B1 chain with S292A
notes: as for B1

Tests used:
ctPrp43 = target: T1, ctPrp43 (Thermochaetoides thermophila, UniProt G0RY84); test: NADH-coupled ATPase assay (pyruvate kinase / lactate dehydrogenase), […] nm; format: biochemical; conditions: no RNA; no G-patch protein; 25 mM Bis-Tris propane pH 7.5, 150 mM KCl, 3 mM MgCl2, 25 °C; 5 uM enzyme; ATP 0-2 mM
T1 construct: gene CTHT_0005780; truncated, residues 61-764; GST fusion, tag cleaved by TEV; E. coli Rosetta 2 (DE3); no G-patch protein
T1 sequence (G0RY84 entry or part of it): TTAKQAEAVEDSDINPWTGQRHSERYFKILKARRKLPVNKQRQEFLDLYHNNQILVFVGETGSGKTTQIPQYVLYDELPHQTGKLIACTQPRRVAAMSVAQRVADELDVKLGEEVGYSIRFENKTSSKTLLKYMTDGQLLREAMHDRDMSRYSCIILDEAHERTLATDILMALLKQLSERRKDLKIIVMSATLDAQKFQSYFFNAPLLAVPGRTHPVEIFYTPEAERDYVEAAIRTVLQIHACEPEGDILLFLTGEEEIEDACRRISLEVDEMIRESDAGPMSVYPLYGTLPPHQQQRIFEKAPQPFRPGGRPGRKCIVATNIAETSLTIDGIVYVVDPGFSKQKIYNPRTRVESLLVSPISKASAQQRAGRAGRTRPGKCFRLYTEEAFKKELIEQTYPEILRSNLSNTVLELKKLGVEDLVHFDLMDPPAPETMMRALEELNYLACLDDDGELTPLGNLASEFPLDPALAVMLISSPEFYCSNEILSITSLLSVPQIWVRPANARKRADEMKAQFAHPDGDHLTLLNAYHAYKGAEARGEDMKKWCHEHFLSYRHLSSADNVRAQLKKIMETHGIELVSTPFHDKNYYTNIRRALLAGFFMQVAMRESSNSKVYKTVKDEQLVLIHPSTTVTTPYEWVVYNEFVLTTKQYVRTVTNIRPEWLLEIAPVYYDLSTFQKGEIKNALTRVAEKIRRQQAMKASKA

purified protein = substrate: Nc1ncnc2c1ncn2[C@@H]1O[C@H](COP(=O)(O)OP(=O)(O)OP(=O)(O)O)[C@@H](O)[C@H]1O; test: purified protein; format: biochemical, Thermochaetoides thermophila; conditions: no RNA, 25 mM Bis-Tris propane pH 7.5, 150 mM KCl, 3 mM MgCl2, 25 °C, 0.4 uM enzyme, ATP 0-2 mM

Row | Molecule | Km (ctPrp43) | Km (purified protein) | kcat (purified protein)
1 | Nc1ncnc2c1ncn2[C@@H]1O[C@H](COP(=O)(O)OP(=O)(O)OP(=O)(O)O)[C@@H](O)[C@H]1O [ATP] | 21.1 ± 3.88 µM | – | –
2 | B1 | – | 34.53 ± 1.74 µM | 0.559 ± 0.00483 s⁻¹
3 | B2 | – | 24.79 ± 0.93 µM | 0.9228 ± 0.00583 s⁻¹
4 | B3 | – | 33.15 ± 2.24 µM | 0.8948 ± 0.0107 s⁻¹
